Data from US20240010750A1 (Bayer, published 2024).
Substitutions are numbered along the chain they refer to. Read-outs that look alike come from different tables or passages of the source. One block for each binder: values may come before it.

Assays:
human alpha2-Antiplasmin [1] = biological target: T1, human alpha2-Antiplasmin (human, UniProt P08697 40-491); experiment: ELISA, coated antigen, 1st exp.
T1 construct: Bought (antibodies online, ABIN2544306); also called human A2AP; a2AP
T1 sequence: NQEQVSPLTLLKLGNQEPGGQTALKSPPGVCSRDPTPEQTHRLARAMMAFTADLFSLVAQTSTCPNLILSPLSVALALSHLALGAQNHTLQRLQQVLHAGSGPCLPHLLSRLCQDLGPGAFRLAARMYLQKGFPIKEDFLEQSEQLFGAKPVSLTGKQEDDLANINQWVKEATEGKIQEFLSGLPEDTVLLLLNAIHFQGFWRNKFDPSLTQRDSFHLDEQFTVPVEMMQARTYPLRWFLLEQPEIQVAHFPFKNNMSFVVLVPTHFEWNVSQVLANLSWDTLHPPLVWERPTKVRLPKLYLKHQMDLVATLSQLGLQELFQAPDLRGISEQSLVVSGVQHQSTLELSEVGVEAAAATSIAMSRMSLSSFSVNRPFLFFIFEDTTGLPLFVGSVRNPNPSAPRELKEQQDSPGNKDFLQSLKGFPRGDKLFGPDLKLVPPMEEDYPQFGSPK
Protocol: (§1) A standard ELISA format was used for analyzing the binding affinity of Fabs of this invention to human and rabbit alpha-2-Antiplasmin, respectively. Antigens were coated to black 384 well Maxisorp microtiter plates (Nunc; catalogue number 460518), diluted to a concentration of 1 μg/ml in 1× Coating Buffer (Candor Bioscience; catalogue number 121125). Plates were incubated overnight at 4° C. After overnight incubation, plates were washed 2× with 50 μl/well using PBS+0.05% Tween 20. Following this, 50 μl/well of blocking buffer (Smart Block; Candor Bioscience; catalogue number 113500) was added and the plates were incubated for 1 hour at room temperature. Afterwards, plates were washed for 3× using […] PBS+0.05% Tween 20 buffer. Fabs of this invention were added at different concentrations in a final volume of 30 μl/well. Plates were incubated for 1 hour at room temperature. Following this incubation step, plates were washed for 3× using 50 μl/well of a PBS+0.05% Tween 20 buffer. For the detection of bound Fabs and full-length antibodies, the anti-Human Lambda Light Chains (Bound and Free)—Peroxidase antibody (Sigma; catalogue number A5175) was diluted by the factor of 1:10.000 in 10% Blocking Buffer. 30 μl/well of this diluted detection antibody was added and plates are incubated for 1 hour at room temperature. Following this incubation step, plates were washed for 3× using 50 μl/well of a PBS+0.05% Tween 20 buffer. As substrate, a mixture of 30 μl/well of 1:1000 diluted Amplex red (Invitrogen; catalogue number 12222; stock solution 10 mM in DMSO) and 1:10.000 of Hydrogen peroxide (Merck; catalogue number 107209; 30% stock solution) was added and the plates incubated for minutes in the dark.
(§2) For measurement, the Infinite f500 reader (Tecan) was used. Measurement mode: Fluorescence; Top reading; Ex 535 nm; Em 590 nm.
(§3) According to the methods described in Example 3 and Example 4, antibodies TPP-14323, TPP-14318, TPP-14314, TPP-14313, TPP-14308, TPP-14305, TPP-14303, TPP-14298, and TPP-14293 were tested for their ability to bind to and to block the activity of human alpha2-Antiplasmin in a dose-dependent manner. For each antibody, one dose response curve from two to three independent experiments performed in quadruplicate is shown as example in FIG. 7.1 to FIG. 7.18. (see Table 3.3)

human alpha2-Antiplasmin [2] = biological target: T1, human alpha2-Antiplasmin; experiment: ELISA, coated antigen, 3rd exp.
Protocol: as §1, §2, §3

human alpha2-Antiplasmin [3] = biological target: T1, human alpha2-Antiplasmin; experiment: ELISA, coated antigen, 2nd exp.
Protocol: as §1, §2, §3

human alpha2-Antiplasmin [4] = biological target: T1, human alpha2-Antiplasmin; experiment: cell-based or functional assay
human alpha2-Antiplasmin [5] = biological target: T1, human alpha2-Antiplasmin; experiment: cell-based or functional assay; remark: listed apart in the source
human Plasmin = human Plasmin (human, UniProt P00747 97-580; P00747 581-810, limits assumed); experiment: cell-based or functional assay
human Plasmin, sequence (P00747 97-580 limits assumed, chain 1 of 2): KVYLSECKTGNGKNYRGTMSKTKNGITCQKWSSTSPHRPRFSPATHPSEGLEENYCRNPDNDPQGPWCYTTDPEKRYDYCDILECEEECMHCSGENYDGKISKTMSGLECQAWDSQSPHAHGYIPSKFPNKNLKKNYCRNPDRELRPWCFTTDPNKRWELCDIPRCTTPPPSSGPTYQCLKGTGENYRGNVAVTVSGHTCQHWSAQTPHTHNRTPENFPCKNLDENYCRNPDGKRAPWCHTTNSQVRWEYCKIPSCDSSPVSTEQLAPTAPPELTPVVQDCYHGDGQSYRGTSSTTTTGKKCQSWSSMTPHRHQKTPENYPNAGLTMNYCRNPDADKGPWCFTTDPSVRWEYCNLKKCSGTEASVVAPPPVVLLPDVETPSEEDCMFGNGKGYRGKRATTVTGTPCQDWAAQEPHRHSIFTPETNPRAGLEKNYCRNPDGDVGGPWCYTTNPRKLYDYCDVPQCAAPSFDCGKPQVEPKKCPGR
human Plasmin, sequence (P00747 581-810 limits assumed, chain 2 of 2): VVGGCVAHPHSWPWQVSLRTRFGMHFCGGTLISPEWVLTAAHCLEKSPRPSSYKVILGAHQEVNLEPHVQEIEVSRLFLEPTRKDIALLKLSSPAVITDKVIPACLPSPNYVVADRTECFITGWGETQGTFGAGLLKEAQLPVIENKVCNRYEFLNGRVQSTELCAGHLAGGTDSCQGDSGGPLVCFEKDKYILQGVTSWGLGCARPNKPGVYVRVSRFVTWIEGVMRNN

human alpha2-Antiplasmin [6] = biological target: T1, human alpha2-Antiplasmin; experiment: ELISA (Example 3), human alpha2-Antiplasmin coated, RFU
Protocol: as §1, with “As substrate, a mixture of 30 μl/well of 1:1000 diluted Amplex red (Invitrogen; catalogue number 12222; stock solution 10 mM in DMSO) and 1:10.000 of Hydrogen peroxide (Merck; catalogue number 107209; 30% stock solution) was added and the plates incubated for minutes in the dark.” left out
as §2
According to the method described in Example 3, these 12 antibodies were tested for ability to bind human and rabbit alpha2-Antiplasmin in a dose-dependent manner. Data generated were analyzed using the GraphPadPrism software. The binding activities of the antibodies were calculated as EC50 values. […]

human alpha2-Antiplasmin [7] = biological target: T1, human alpha2-Antiplasmin; experiment: cell-based or functional assay; remark: listed apart in the source
human alpha2-Antiplasmin [8] = biological target: T1, human alpha2-Antiplasmin; experiment: cell-based or functional assay; remark: listed apart in the source
human alpha2-Antiplasmin [9] = biological target: T1, human alpha2-Antiplasmin; experiment: cell-based or functional assay; remark: listed apart in the source
human alpha2-Antiplasmin [10] = biological target: T1, human alpha2-Antiplasmin; experiment: ELISA, coated antigen, quantified unpurified antibody, 2nd exp.
[11] = biological target: T2, rabbit alpha2-Antiplasmin (rabbit (Oryctolagus cuniculus)); experiment: SPR Biacore T200, antibody captured on protein G chip, A2AP as analyte, 25 C
T2 construct: Made in house in HEK293 cells, purified by Ni-IMAC and SEC (a His tag is implied but not described); also called rabbit A2AP; Oryctolagus cuniculus A2AP
T2 chain: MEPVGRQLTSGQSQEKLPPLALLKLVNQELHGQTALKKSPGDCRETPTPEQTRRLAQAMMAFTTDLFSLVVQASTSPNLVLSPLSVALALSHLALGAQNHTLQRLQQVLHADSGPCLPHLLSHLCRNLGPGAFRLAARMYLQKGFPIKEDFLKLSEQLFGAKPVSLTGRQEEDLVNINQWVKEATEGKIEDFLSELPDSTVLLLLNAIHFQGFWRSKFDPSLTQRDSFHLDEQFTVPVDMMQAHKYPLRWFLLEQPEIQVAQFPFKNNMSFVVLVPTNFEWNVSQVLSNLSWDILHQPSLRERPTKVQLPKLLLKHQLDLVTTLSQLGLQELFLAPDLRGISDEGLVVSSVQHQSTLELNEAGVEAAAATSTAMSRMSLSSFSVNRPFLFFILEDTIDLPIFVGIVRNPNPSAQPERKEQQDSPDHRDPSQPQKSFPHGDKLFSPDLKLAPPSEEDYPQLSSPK
Protocol: (§4) Binding assays were performed on a Biacore T200 instrument at 25° C. with a protein G sensor chip and assay buffer HBS-EP+. Antibodies were captured to ˜150 RU and analytes were used at concentrations between 1.56 and 200 nM for full kinetics. As interaction partner, alpha2-Antiplasmin from human, cynomolgus and rabbit was used. Regeneration was performed with glycine-HCl pH 1.5. Kinetic parameters were derived by fitting experimental sensorgrams to a 1:1 Langmuir binding model.

human alpha2-Antiplasmin [12] = biological target: T1, human alpha2-Antiplasmin; experiment: as above
Protocol: as §4

[13] = biological target: T3, cynomolgus alpha2-Antiplasmin (cynomolgus (Macaca fascicularis), UniProt P08697 28-491 (human entry)); experiment: as above
T3 construct: Made in house in the same way as the rabbit protein; also called cynomolgus A2AP; Macaca fascicularis A2AP
T3 chain: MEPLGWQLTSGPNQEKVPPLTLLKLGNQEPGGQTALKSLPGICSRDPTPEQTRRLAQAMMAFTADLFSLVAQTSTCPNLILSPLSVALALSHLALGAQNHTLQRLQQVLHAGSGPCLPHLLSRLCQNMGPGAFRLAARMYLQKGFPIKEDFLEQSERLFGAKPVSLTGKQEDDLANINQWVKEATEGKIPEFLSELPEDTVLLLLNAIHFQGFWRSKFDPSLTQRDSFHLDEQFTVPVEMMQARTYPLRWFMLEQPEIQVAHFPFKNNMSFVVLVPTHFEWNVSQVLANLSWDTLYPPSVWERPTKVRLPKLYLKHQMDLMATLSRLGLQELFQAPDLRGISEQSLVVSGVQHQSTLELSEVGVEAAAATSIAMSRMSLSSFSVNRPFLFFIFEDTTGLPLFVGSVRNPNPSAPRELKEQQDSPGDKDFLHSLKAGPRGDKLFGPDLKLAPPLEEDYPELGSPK
Protocol: as §4

human alpha2-Antiplasmin [14] = biological target: T1, human alpha2-Antiplasmin; experiment: ELISA, coated antigen, quantified unpurified antibody, 1st exp.
human alpha2-Antiplasmin [15] = biological target: T1, human alpha2-Antiplasmin; experiment: cell-based or functional assay; remark: listed apart in the source
human alpha2-Antiplasmin [16] = biological target: T1, human alpha2-Antiplasmin; experiment: ELISA (Example 3), human alpha2-Antiplasmin coated, RFU; remark: listed apart in the source
Protocol: as §1, with “30 μl/well of this diluted detection antibody was added and plates are incubated for 1 hour at room temperature. Following this incubation step, plates were washed for 3× using 50 μl/well of a PBS+0.05% Tween 20 buffer. As substrate, a mixture of 30 μl/well of 1:1000 diluted Amplex red (Invitrogen; catalogue number 12222; stock solution 10 mM in DMSO) and 1:10.000 of Hydrogen peroxide (Merck; catalogue number 107209; 30% stock solution) was added and the plates incubated for minutes in the dark.” left out
as §2

human alpha2-Antiplasmin [17] = biological target: T1, human alpha2-Antiplasmin; experiment: ELISA, coated antigen, quantified unpurified antibody, 3rd exp.
Protocol: as §1, §2

human alpha2-Antiplasmin [18] = biological target: T1, human alpha2-Antiplasmin; experiment: cell-based or functional assay; remark: listed apart in the source
human alpha2-Antiplasmin [19] = biological target: T1, human alpha2-Antiplasmin; experiment: cell-based or functional assay; remark: listed apart in the source

EC50 (human alpha2-Antiplasmin [1]): 5.7 nM
EC50 (human alpha2-Antiplasmin [2]): 61 nM
EC50 (human alpha2-Antiplasmin [3]): 59 nM
EC50 (read off the curve); function blocking assay (Example 4), RFU of plasmin substrate cleavage (human alpha2-Antiplasmin [4]): ~20 nM
function blocking activity [IC50 M], 1st exp. (human alpha2-Antiplasmin [5]): 20 nM
function blocking activity [IC50 M], 2nd exp. (human alpha2-Antiplasmin [5]): 25 nM
function blocking activity [IC50 M], 3rd exp. (human alpha2-Antiplasmin [5]): 22 nM
IC50 [M], inhibition of plasmin proteolytic activity (human Plasmin): > 1e-05 M
B1: TPP-14318 hIgG1 (antibody, V domains shown)
VH: EVQLLESGGGLVQPGGSLRLSCAASGFTFDDYAMSWVRQAPGKGLEWVSAIGTGGGTYYADSVKGRFTISRDNSKNTLYLQMNSLRAEDTAVYYCAREYYDSSGYYHLEYWGQGTLVTVSS
VL: QSVLTQPPSASGTPGQRVTISCTGSSSNIGATYDVHWYQQLPGTAPKLLIYSNNQRPSGVPDRFSGSKSGTSASLAISGLRSEDEADYYCAAWDWSLSGWVFGGGTKLTVLG

EC50 (human alpha2-Antiplasmin [1]): 3.3 nM
EC50 (read off the curve) (human alpha2-Antiplasmin [6]): ~3 nM
EC50 (human alpha2-Antiplasmin [2]): 34 nM
EC50 (human alpha2-Antiplasmin [3]): 35 nM
function blocking activity [IC50 M], 1st exp. (human alpha2-Antiplasmin [5]): 12 nM
function blocking activity [IC50 M], 2nd exp. (human alpha2-Antiplasmin [5]): 20 nM
function blocking activity [IC50 M], 3rd exp. (human alpha2-Antiplasmin [5]): 13 nM
EC50 (read off the curve); function blocking assay (Example 4), RFU of plasmin substrate cleavage (human alpha2-Antiplasmin [7]): ~10 nM
IC50 [M], inhibition of plasmin proteolytic activity (human Plasmin): > 5e-06 M
B2: TPP-14313 hIgG1 (antibody, V domains shown)
VH: B1 VH with E109V
VL: QSVLTQPPSASGTPGQRVTISCTGSSSNIGATYDVHWYQQLPGTAPKLLIYSNNQRPSGVPDRFSGSKSGTSASLAISGLRSEDEADYYCAAWDWSLSGWVFGGGTKLTVL
notes: Human IgG1 lambda

function blocking activity [IC50 M], 1st exp. (human alpha2-Antiplasmin [9]): 0.4 nM
function blocking activity [IC50 M], 2nd exp. (human alpha2-Antiplasmin [9]): 0.5 nM
EC50 (human alpha2-Antiplasmin [17]): 0.11 nM
EC50 (read off the curve); function blocking assay (Example 4), RFU of plasmin substrate cleavage (human alpha2-Antiplasmin [18]): ~0.4 nM
EC50 (human alpha2-Antiplasmin [10]): 0.12 nM
Kd [11]: 49 nM
Kd (human alpha2-Antiplasmin [12]): 14 nM
Kd [13]: 11 nM
EC50 (human alpha2-Antiplasmin [14]): 0.085 nM
IC50, A2AP function blocking assay (Example 10) (human alpha2-Antiplasmin [15]): 0.14 nM
EC50 (read off the curve) (human alpha2-Antiplasmin [16]): ~0.08 nM
IC50 [M], inhibition of plasmin proteolytic activity (human Plasmin): > 1e-05 M
B4: TPP-17045 hIgG1 (antibody, V domains shown)
VH: B1 VH with R97K, Y99G, E109D
VL: B1 VL
notes: Germline variant of TPP-14308

The remaining lines, values behind:

B3: TPP-17048 hIgG1 (antibody, V domains shown)
VH: B1 VH with D30S, G56S, Y99G, E109D
VL: B1 VL
notes: Germline variant of TPP-14308
EC50 (read off the curve); function blocking assay (Example 4), RFU of plasmin substrate cleavage (human alpha2-Antiplasmin [8]): ~0.3 nM
function blocking activity [IC50 M], 1st exp. (human alpha2-Antiplasmin [9]): 0.28 nM
function blocking activity [IC50 M], 2nd exp. (human alpha2-Antiplasmin [9]): 0.39 nM
function blocking activity [IC50 M], 3rd exp. (human alpha2-Antiplasmin [9]): 0.3 nM
EC50 (human alpha2-Antiplasmin [10]): 0.36 nM
Kd [11]: 9.7 nM
Kd (human alpha2-Antiplasmin [12]): 7.9 nM
Kd [13]: 5.8 nM
EC50 (human alpha2-Antiplasmin [14]): 0.18 nM
IC50, A2AP function blocking assay (Example 10) (human alpha2-Antiplasmin [15]): 1.2 nM
EC50 (read off the curve) (human alpha2-Antiplasmin [16]): ~0.2 nM
IC50 [M], inhibition of plasmin proteolytic activity (human Plasmin): > 1e-05 M

B5: TPP-14323 hIgG1 (antibody, V domains shown)
VH: B1 VH with E109T
VL: B1 VL
EC50 (human alpha2-Antiplasmin [1]): 7 nM
EC50 (human alpha2-Antiplasmin [2]): 71 nM
EC50 (human alpha2-Antiplasmin [3]): 73 nM
function blocking activity [IC50 M], 1st exp. (human alpha2-Antiplasmin [5]): 20 nM
function blocking activity [IC50 M], 2nd exp. (human alpha2-Antiplasmin [5]): 20 nM
function blocking activity [IC50 M], 3rd exp. (human alpha2-Antiplasmin [5]): 29 nM
EC50 (read off the curve); function blocking assay (Example 4), RFU of plasmin substrate cleavage (human alpha2-Antiplasmin [19]): ~20 nM
IC50 [M], inhibition of plasmin proteolytic activity (human Plasmin): > 1e-05 M
